Experimental data as given in patent US11535650 (RA PHARMACEUTICALS, dated 2022).
Positions of bridges follow the written chain, without caps; N, C: chain ends. Non-standard residues stand in square brackets, D forms with d. Primed or numbered codes have the meaning given here. *: point of attachment. mXylyl(3) = bridging moiety between the two residues given in brackets; mXylyl″ = bridging moiety between the two marked residues; mXylyl = bridging moiety between residues (mXylyl(i,j)); Ala(1H-tetrazol-5-yl) = N[C@@H](Cc1nnn[nH]1)C(=O)O; Trp(7-aza) = N[C@@H](Cc1c[nH]c2ncccc12)C(=O)O; mXylyl(4) = bridging moiety between residues; Trp(1-Me) = Cn1cc(C[C@H](N)C(=O)O)c2ccccc21; pXylyl = bridging moiety between residues; Phe(3-Cl) = N[C@@H](Cc1cccc(Cl)c1)C(=O)O; Tiq1c(1S) = O=C(O)[C@H]1NCCc2ccccc21; dPhg = N[C@@H](C(=O)O)c1ccccc1; Phg = N[C@H](C(=O)O)c1ccccc1; Tle = CC(C)(C)[C@H](N)C(=O)O; NMeS = CN[C@@H](CO)C(=O)O; hCys = N[C@@H](CCS)C(=O)O; Heptanoyl = CCCCCCC(=O)*; Nle = CCCC[C@H](N)C(=O)O; Nva = CCC[C@H](N)C(=O)O; Sar = CNCC(=O)O

B1: R3128 (peptide)
peptide: Ac-[Nva]CYNN[Tle]ECEYP[Phg][Tle]-NH2
modifications: cysteine pairing not given here
B2: R3101 (peptide)
peptide: Ac-[Nva]C[Phg]T[Trp(7-aza)]EY[NMeS]HGC[Nva]-NH2
modifications: linker 2-11 via mXylyl(4) (inferred)
B3: R3104 (peptide)
peptide: Ac-[Nva][hCys][Phg]T[Trp(7-aza)]EY[NMeS]HC[Nva]-NH2
modifications: linker 2-10 via pXylyl
B4: R3108 (peptide)
peptide: Ac-[Nva][hCys][Phg]T[Trp(7-aza)]EY[NMeS]H[hCys][Nva]-NH2
modifications: linker 2-10 via pXylyl
B5: R3109 (peptide)
peptide: Ac-[Nva]C[Phg]T[Trp(1-Me)]EY[NMeS]AC[Nva]-NH2
modifications: linker 2-10 via mXylyl(4)
B6: R3105 (peptide)
peptide: Ac-[Nva]C[Phg]T[Trp(7-aza)]EY[NMeS]H[hCys][Nva]-NH2
modifications: linker 2-10 via mXylyl(4)
B7: R3138 (peptide)
peptide: Ac-CVERFCD[Tle]YWEF-NH2
modifications: linker 1-6 via mXylyl″
B8: R3125 (peptide)
peptide: Ac-CVERFCWEF-NH2
modifications: linker 1-6 via mXylyl(4)
B9: R3133 (peptide)
peptide: Ac-[Nva]C[Phg][dA][Trp(7-aza)]EY[NMeS]HC[Nva]-NH2
modifications: linker 2-10 via mXylyl″
B10: R3132 (peptide)
peptide: Ac-[Nva]C[Phg]T[dW]EY[NMeS]HC[Nva]-NH2
modifications: linker 2-10 via mXylyl″
B11: R3135 (peptide)
peptide: Ac-[Nva]C[Phg]T[Trp(7-aza)]EY[NMeS][dA]C[Nva]-NH2
modifications: linker 2-10 via mXylyl″
B12: R3122 (peptide)
peptide: Ac-[Nva]C[Tiq1c(1S)]T[Trp(7-aza)]EY[NMeS]HC[Nva]-NH2
modifications: linker 2-10 via mXylyl(3)
B13: R3131 (peptide)
peptide: Ac-[Nva]C[Phg]TW[Ala(1H-tetrazol-5-yl)]Y[NMeS]HC[Nva]-NH2
modifications: linker 2-10 via mXylyl(3)
B14: R3110 (peptide)
peptide: Ac-YEN[Tle]Y[Trp(1-Me)]EYP[Phg][Nva]-NH2
SMILES: CCC[C@H](NC(=O)[C@@H](NC(=O)[C@@H]1CCCN1C(=O)[C@H](Cc1ccc(O)cc1)NC(=O)[C@H](CCC(=O)O)NC(=O)[C@H](Cc1cn(C)c2ccccc12)NC(=O)[C@H](Cc1ccc(O)cc1)NC(=O)[C@@H](NC(=O)[C@H](CC(N)=O)NC(=O)[C@H](CCC(=O)O)NC(=O)[C@H](Cc1ccc(O)cc1)NC(C)=O)C(C)(C)C)c1ccccc1)C(N)=O
B15: R3107 (peptide)
peptide: Ac-[Nva][hCys][Phg]T[Trp(7-aza)]EY[NMeS]H[hCys][Nva]-NH2
modifications: linker 2-10 via mXylyl(4)
B16: R3137 (peptide)
peptide: Heptanoyl-C[dPhg]T[Trp(7-aza)]EY[NMeS]AC[Nva]-NH2
modifications: linker 1-9 via mXylyl″; not fully specified; printed as [mXylyl(1,9)]heptanoyl-C-(D-Phg)-T-azaTrp-E-Y-(N-Me)S-A-C-Nvl-NH2
B17: R3119 (peptide)
peptide: Ac-YENY[dW]EYP[Phg][Nva]-NH2
SMILES: CCC[C@H](NC(=O)[C@@H](NC(=O)[C@@H]1CCCN1C(=O)[C@H](Cc1ccc(O)cc1)NC(=O)[C@H](CCC(=O)O)NC(=O)[C@@H](Cc1c[nH]c2ccccc12)NC(=O)[C@H](Cc1ccc(O)cc1)NC(=O)[C@H](CC(N)=O)NC(=O)[C@H](CCC(=O)O)NC(=O)[C@H](Cc1ccc(O)cc1)NC(C)=O)c1ccccc1)C(N)=O
B18: R3139 (peptide)
peptide: Ac-C[Tle]ERFCD[Tle]YWEF-NH2
modifications: linker 1-6 via mXylyl″
B19: R3106 (peptide)
peptide: Ac-[Nva]C[Phg]T[Trp(7-aza)]EY[NMeS]H[hCys][Nva]-NH2
modifications: linker 2-10 via pXylyl
B20: R3140 (peptide)
peptide: Ac-CVERFCDVYWEYP-NH2
modifications: linker 1-6 via mXylyl″
B21: R3102 (peptide)
peptide: Ac-[Nva]C[Phg]T[Trp(7-aza)]EYPHC[Nva]-NH2
modifications: linker 2-10 via mXylyl(4)
B22: R3103 (peptide)
peptide: Ac-[Nva][hCys][Phg]T[Trp(7-aza)]EY[NMeS]HC[Nva]-NH2
modifications: linker 2-10 via mXylyl(4)
B23: R3126 (peptide)
peptide: Ac-[Nva]CYNN[Tle]E[Trp(7-aza)]ECP[Phg][Tle]-NH2
modifications: cysteine pairing not given here
B24: R3129 (peptide)
peptide: Ac-[Nva]CYNN[Tle]ECEYP[Phg][Tle]-NH2
modifications: linker 2-8 via mXylyl(4)
B25: R3000 (peptide)
peptide: Ac-[Nva]CYKNYH[Trp(7-aza)]EYP[Tle]Y-NH2
SMILES: CCC[C@H](NC(C)=O)C(=O)N[C@@H](CS)C(=O)N[C@@H](Cc1ccc(O)cc1)C(=O)N[C@@H](CCCCN)C(=O)N[C@@H](CC(N)=O)C(=O)N[C@@H](Cc1ccc(O)cc1)C(=O)N[C@@H](Cc1c[nH]cn1)C(=O)N[C@@H](Cc1c[nH]c2ncccc12)C(=O)N[C@@H](CCC(=O)O)C(=O)N[C@@H](Cc1ccc(O)cc1)C(=O)N1CCC[C@H]1C(=O)N[C@H](C(=O)N[C@@H](Cc1ccc(O)cc1)C(N)=O)C(C)(C)C
B26: R3136 (peptide)
peptide: Heptanoyl-[Nva]C[dPhg]T[Trp(7-aza)]EY[NMeS]AC[Nva]-NH2
modifications: linker 2-10 via mXylyl″; not fully specified; printed as [mXylyl(2,10)]heptanoyl-Nvl-C-(D-Phg)-T-azaTrp-E-Y-(N-Me)S-A-C-Nvl-NH2
B27: R3010 (peptide)
peptide: Ac-[Nva]CYE[Sar][Tle]Y[Trp(7-aza)]E[Nva][Nva]PC-NH2
modifications: linker 2-13 via mXylyl
B28: R3124 (peptide)
peptide: Ac-CVERFCVYWEF-NH2
modifications: linker 1-6 via mXylyl(4)
B29: R3113 (peptide)
peptide: Ac-Y[Nva]C[Phg]T[Trp(7-aza)]EY[NMeS]HC[Nva]-NH2
modifications: linker 3-11 via mXylyl(4)
B30: R3134 (peptide)
peptide: Ac-[Nva]C[Phg]T[Trp(7-aza)]E[Phe(3-Cl)][NMeS]AC[Nva]-NH2
modifications: linker 2-10 via mXylyl″
B31: R3141 (peptide)
peptide: Ac-CVERFCDVYWEFP-NH2
modifications: linker 1-6 via mXylyl″
B32: R3009 (peptide)
peptide: Ac-[Nva]CYE[Sar][Tle]Y[Trp(7-aza)]EC[Nva]P[Nva]-NH2
modifications: linker 2-10 via mXylyl
B33: R3112 (peptide)
peptide: Ac-[Nle]C[Phg]T[Trp(7-aza)]EY[NMeS]HC[Nva]-NH2
modifications: linker 2-10 via mXylyl(4)
B34: R3013 (peptide)
peptide: Ac-[Nva]C[Phg]T[Trp(7-aza)]EY[NMeS]HC-NH2
modifications: linker 2-10 via mXylyl
B35: R3012 (peptide)
peptide: Ac-[Nva]C[Phg]T[Trp(7-aza)]EY[NMeS]HC[Nva]-NH2
modifications: linker 2-10 via mXylyl
B36: R3111 (peptide)
peptide: Ac-[Nva]T[Phg]C[Trp(7-aza)]EY[NMeS]AC[Nva]-NH2
modifications: linker 4-10 via mXylyl(4)
B37: R3127 (peptide)
peptide: Ac-[Nva]CYNN[Tle]E[Trp(7-aza)]ECP[Phg][Tle]-NH2
modifications: linker 2-10 via mXylyl(4)

These binders were tested against human C5 protein (human, UniProt P01031 19-673; P01031 678-1676) (assay: cell-based or functional assay).
For B1, the “Avg. IC50, human hemolysis assay (complete human sera)” value (shortened to “Avg. IC50, human hemolysis assay”) was over 100 µM.
In the case of B2, the “Avg. IC50, human hemolysis assay” value is reported as over 100 µM.
In the case of B3, the “Avg. IC50, human hemolysis assay” value is reported as over 2 µM.
With B4 the “Avg. IC50, human hemolysis assay” value was over 75 µM.
B5 was tested, and the “Avg. IC50, human hemolysis assay” value was over 100 µM.
For B6, the “Avg. IC50, human hemolysis assay” value was over 5 µM.
For B7, the “Avg. IC50, human hemolysis assay” value was 0.0872 µM.
B8 was tested, and the “Avg. IC50, human hemolysis assay” value was over 100 µM.
With B9 the “Avg. IC50, human hemolysis assay” value was over 75 µM.
With B10 the “Avg. IC50, human hemolysis assay” value was over 100 µM.
In the case of B11, the “Avg. IC50, human hemolysis assay” value is reported as over 25 µM.
In the case of B12, the “Avg. IC50, human hemolysis assay” value is reported as over 50 µM.
For B13, the “Avg. IC50, human hemolysis assay” value was over 100 µM.
For B14, the “Avg. IC50, human hemolysis assay” value was 2.94 µM.
For B15, the “Avg. IC50, human hemolysis assay” value was over 75 µM.
In the case of B16, the “Avg. IC50, human hemolysis assay” value is reported as over 100 µM.
In the case of B17, the “Avg. IC50, human hemolysis assay” value is reported as over 100 µM.
B18 was tested, and the “Avg. IC50, human hemolysis assay” value was 0.0972 µM.
With B19 the “Avg. IC50, human hemolysis assay” value was over 5 µM.
With B20 the “Avg. IC50, human hemolysis assay” value was 0.0179 µM.
In the case of B21, the “Avg. IC50, human hemolysis assay” value is reported as 0.978 µM.
With B22 the “Avg. IC50, human hemolysis assay” value was over 25 µM.
B23 was tested, and the “Avg. IC50, human hemolysis assay” value was over 3 µM.
B24 was tested, and the “Avg. IC50, human hemolysis assay” value was over 100 µM.
For B25, the “Avg. IC50, human hemolysis assay” value was over 10 µM.
B26 was tested, and the “Avg. IC50, human hemolysis assay” value was over 50 µM.
For B27, the “Avg. IC50, human hemolysis assay” value was over 100 µM.
With B28 the “Avg. IC50, human hemolysis assay” value was over 100 µM.
In the case of B29, the “Avg. IC50, human hemolysis assay” value is reported as over 5 µM.
In the case of B30, the “Avg. IC50, human hemolysis assay” value is reported as over 5 µM.
B31 was tested, and the “Avg. IC50, human hemolysis assay” value was 0.0245 µM.
In the case of B32, the “Avg. IC50, human hemolysis assay” value is reported as over 100 µM.
With B33 the “Avg. IC50, human hemolysis assay” value was over 5 µM.
With B34 the “Avg. IC50, human hemolysis assay” value was 0.344 µM.
In the case of B35, the “Avg. IC50, human hemolysis assay” value is reported as 0.148 µM.
In the case of B36, the “Avg. IC50, human hemolysis assay” value is reported as over 5 µM.
B37 was tested, and the “Avg. IC50, human hemolysis assay” value was over 75 µM.
